Experimental data as given in the nanobody polyreactivity screen of Harvey et al. (2022).

Assay: yeast display, Sf9 membrane polyspecificity reagent, FACS + sequencing; frameworks hold sequencing errors
Outline: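 Galactose induction of a Saccharomyces cerevisiae BJ5465 synthetic nanobody display library ran 36–48 hours. The cells were then stained for 1 hour at 4 °C with 10% biotinylated, detergent-solubilized Sf9 membrane reagent, pulled down on streptavidin microbeads and FACS-sorted into low and high (top ~1%) gates on expression and reagent-binding fluorescence. Labels for polyreactivity follow the gate of origin.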

In the case of “QVQLVESVGGLVQAGGSLRLSCAASGITYYGYAMGWYRQAPGKERELVAAISKSGGSTHYADSVKGRFTISRDNAKNTVYLQMNSLKPEDTAVYYCNSRSLVFPITFWEYDYWGQGTQVTVSS”, the “polyreactivity (PSR sort gate)” value is reported as “low polyreactivity”.
In the case of “QVQLVASGGGLVQAGGSLRLSCAASGLIFYIYMGWYRQGPGKERELVAVISSSGNSTYYADSVKGRFTISRDNAKNTVYLQMNSLKQEDTAVSYCNASAYYPPSSSRYDYWGQGTQVTVSS”, the “polyreactivity (PSR sort gate)” value is reported as “low polyreactivity”.
In the case of “QVQLVESGGGLVQAGGSLRLSCAASGRTFISYAMGWYRQAPGKERELVAAISSSGGSTYYADSVKGRFTISRDNAKNTVYLQMNSLIPEDTAVYYCNADSSASTYTFPFDYWGQGTQVTVSS”, the “polyreactivity (PSR sort gate)” value is reported as “low polyreactivity”.
With “QVQLVESGGGLVQEGGSLRLSCAASGITFPDYAMGWYRQAPGKERELVAAISRGVNTYYADSVKGRFTISRDNAKNTVYLQMNSLKPEDTAVYYCNRRGSSGYDYWGLGTQVTVSS” the “polyreactivity (PSR sort gate)” value was “low polyreactivity”.
With “QVQLVESGGGLVQAGGSLRLSCAASGFIFWYYAIGWYRQAPGKERELVADISSGGSTNYADSVKGRFTISRDNAKNTVYLQMNSLKPEDTAVYYCADDTFRRDDYWGQGTQVTVSS” the “polyreactivity (PSR sort gate)” value was “low polyreactivity”.
For “QVQLVESGGGLVQAGGSLRLSCAASGFIDVSYAMGWYRQAPGKERELVAAIDRIGGITYYADSVKGRFTISRDNAKNTVYLQMNSLKPEDTAVYYCAAAARYATVRVGREYYWGQGTQVTVSS”, the “polyreactivity (PSR sort gate)” value was “low polyreactivity”.
With “QVQLVESGGGIVQAGGSLRLSCAASGFTFFIYTMGWYRQAPGKERELVAAIRSRTGSTYYADSVKGRITISRDNAKNTVYLQMNSLKPDDTAVYYCAATRVRSASYSIEYDYWGQGTQVTVSS” the “polyreactivity (PSR sort gate)” value was “high polyreactivity”.
For “QVQLVESGGGLVQAGGSLRLSCAASGSTFYYYAMGWYRQAPGKERELVAAINDSGDRTYYADSVKGRFTISRDNAKNNVYLQMNSLKPEDTAVYYCAADLVSLDPEYDYWGQGTQVTVSS”, the “polyreactivity (PSR sort gate)” value was “low polyreactivity”.
In the case of “QVQLVESGGGLVQAGGSLRLSCAASGRTFTYNAMGWYRQAPGKERELVAAISSSGGRTYYADSVKGRFTISRDNAKNTVYLQMNSLKPEDTAVYYCNKVKYRFSPPGYDYWGQGTQVTVSS”, the “polyreactivity (PSR sort gate)” value is reported as “high polyreactivity”.
With “QVQLEESGGGLVQAGGSLRLSCAASGRTFRTYTMGWYRQAPGTERELVAANSKRGSSTYYADSVKGRFTISRDNAKNTVYLQMNSLKPEDTAVYYCAARSWLSNSPYGYWGQGTQVTVSS” the “polyreactivity (PSR sort gate)” value was “high polyreactivity”.
With “QVQLVESGGGLVQAGVSLPLSCAASGIIFFSYAMGWYRPAPGKERELVAAITSRGTSTYYADSVKGRFTISRDNAKNTVYLQLISLKPEDTAVYYCAARWLWRASKVDYWGQGTQVTLSS” the “polyreactivity (PSR sort gate)” value was “high polyreactivity”.
With “QVQLVESGGGLDQAGGSLRLSCAASGSTIHYYAMGWYRQAPRKERELVAVISSGGSTYYADSVKGRFTISRDNAKNTVYLQMNSLNPEDTAVYYCAKDYRDYNRGWYDYWGQGTQVTVSS” the “polyreactivity (PSR sort gate)” value was “low polyreactivity”.
In the case of “QVQLVESGGGLVQAGGSLRLSCAASGRTFGINAMGWYRQAHGKERELVAVISFGDGGTYYADSVKGRFTISRDNAKNTVYLQMNSLKPEDTAVYYCATDYQSTSVWGGHFVINPYDYWGQGTQVTVSS”, the “polyreactivity (PSR sort gate)” value is reported as “low polyreactivity”.
In the case of “QVQLVESGGGLVQAGGSLRLSCAASGRIIVNNAMGWYRQAPGKERELVAAITRRGGSTYYADSVKGRFTISRDNAKNTVYLQMNSLKPEDTAVYYCARSNQRTVYVASDYWGQGTQVTVSS”, the “polyreactivity (PSR sort gate)” value is reported as “high polyreactivity”.
With “QVQLVESGRGLVQAGGSLRLSCAASGITFTGYAMGWYRQAPGKERELVAASTSGGSTTYADSVKGRFTISRDNAKNTVYLQMNSQKPEDTAVYYCGARTADYSTAEYDYWGQGTQLTVSS” the “polyreactivity (PSR sort gate)” value was “low polyreactivity”.
With “QVQLVESGGGLVQAGGSLRLSCAASGFTFTYNTMGWYRQAPGKEREMVAAISSTGGSTYYADSVKGRFTISRDNAKNTVYLQMNSLKPEDTAVYYCNACLPFSGRKRYGYWGQGTQVTVSS” the “polyreactivity (PSR sort gate)” value was “high polyreactivity”.
For “QVQLVESGGGLVQPGGSLRLSCSASGRIFDNYAMGWYRQAPGKEREFVARITSSGGSTYYADSVKGRFTISRDYAKNTVYLQMYSLKPEDTAVYYCAKRGWSSYCRYDSWGQGTQVTVSS”, the “polyreactivity (PSR sort gate)” value was “high polyreactivity”.
For “QVQLVESGGGLVQAGGSLRLSCAASGSTFYWNAMGWYRQAPGKERELVAAIRRSSDRTYYADSVKGRFTISRDNAKNTVYLQMNSLKPEDTAVYYCAADAYYTYRLDYWGQGTQVTVSS”, the “polyreactivity (PSR sort gate)” value was “high polyreactivity”.
With “QVQLVESGGRLVQAGGSLRLSCAASGSTFGRYTMGWYRQAPGKERELVTAITSSGDSTYYADSVKGRFTISRDNAKNTVYLQMNSLKPEDTAVYDCAADYADLNDYWGQGTQVTVSS” the “polyreactivity (PSR sort gate)” value was “low polyreactivity”.
In the case of “QVQLVESGGGLVQAGGSLRLSCAASGFTIGHYAMGWYRQAPGKERELVAAISSGDRTYFADSVKGRFTISRDNAKNTFYLQMNSLKPEDTAVYYCNAVYYSWAQSARFDYWGQGTQVTVSS”, the “polyreactivity (PSR sort gate)” value is reported as “low polyreactivity”.
In the case of “QVQLVESGGGLVQAGGSLRLSCDASGSTFLTNTMGWYRQAPGKERELVAAISSGDSTYYADSVKGRFTISRDNAKNTVYLQLNSLKPEVTAVYYCARDGGWRNVPRDYWGQGTQVTVSS”, the “polyreactivity (PSR sort gate)” value is reported as “low polyreactivity”.
With “QVQLVESGGGLVQAGGSLRLSCAASGTIFLYYAMGWYRQAPGKERELVAGINRVGSTNYADSVKGRFTISRDNAKNTVYLQMNSLKPEDTAVFYCNKAATRSRSRGYWGQGTQVNVSS” the “polyreactivity (PSR sort gate)” value was “low polyreactivity”.
With “QVQLVESGGGLVQAGGSLRLSCAASGSIFGEYAMGWSRQAPGKERELVATIRQSGDSTYYADSVKGRFTISRDNAKNTVYLQMNSLKPEDTEVYYCADDLWLYDYYSEYDYWGQGTQVTVSS” the “polyreactivity (PSR sort gate)” value was “low polyreactivity”.
With “QVQLVESGGGLVQAGGSLRLSCAASGRTFTYYAMGWYRQAPGKERELVAAISRGGGSTHYADSVKGRFTISRDNEKNTVYLQMNSLKPEDTAVYYCAARYSTRYKYDYWGQGTQVTVSS” the “polyreactivity (PSR sort gate)” value was “high polyreactivity”.
With “QVQLVESGGGLVQAGGSLRLSCAASGSTFAGYAMGWYRQAPGKERELVAAISRRGGSTYYADSVKGRFTISRDNAKNTVYLQMNSLKPEDTAVYYCNRDKYLRDPDYDYWGQGTQVTVSS” the “polyreactivity (PSR sort gate)” value was “low polyreactivity”.
For “QVQLVESGGGLVQAGGSLRLSCAASGFTFYRYAMGWYRQAPGKERELVAAISSTGDRTYYADSVKGRFTISRDNAKNTVYLQMNSLKPEDTAVYYCAAPYQNQVEFNYWGQGTQVTVSS”, the “polyreactivity (PSR sort gate)” value was “high polyreactivity”.
In the case of “QVQLVESVGCLVQAGGSLRLICAASGSIFVDYAMGWYRQAPGKERELVAAISSGGGSTYYADSVKGRFTISRDNSKYTVYLQMNSLKPEDTAVYYCATDLQPRSFLYWYNYWGQGTQVTVSS”, the “polyreactivity (PSR sort gate)” value is reported as “low polyreactivity”.
For “QVQLVESGGGLVQAGGSLRLSCAASGRIFRYYAMGWYRQAAGKERELVAAIRYRSGGTSYADSVKGRFTISRDNAKNTVYLQMNSLKPEDTAVYYCNADKRLRGHGYDYWGQGTQVTVSS”, the “polyreactivity (PSR sort gate)” value was “high polyreactivity”.
In the case of “QVQLVESGGGLVQAGGSLRLSCAASGSTSQSNAMGWYRQAPGKERELVAAISWSGTSTYYADSVKGRFTISRDNAKNTVYLQMNSLNPEDSAVYYCAADYIFDYDYWGQGTQVTVSS”, the “polyreactivity (PSR sort gate)” value is reported as “low polyreactivity”.
For “QVQLVESGGGLVQAGGSLRLSCAASGRTFSGYAMGWYRQAPGKERELVAAISNSGGRTYYADSVKGRFTISRDNAKNTDYLQMNSLKPEDTAVYYSNAVSYWRYDYWGQGTQVTVSS”, the “polyreactivity (PSR sort gate)” value was “high polyreactivity”.
For “QVQLVESGGGLVQAGGSLRLSCAASGSIFFTNVMGWYRQAPGKEREFVAAITGGGGSTYYADSVKGRFTISRDNAKNTVYLQMNSLKPEDTAVYYCATKAKPRSGYNYWGQGTQVTVSS”, the “polyreactivity (PSR sort gate)” value was “low polyreactivity”.
In the case of “QVQLVESGGGLVQAGGSLRLSCAASGSIFSNYAMGWYRQAPGKERELVAAITLSSGGTYYADSVKGRFTISRDNAKNTVYLQMNSLKPEDTAVYYCAAQYKYFKHRYYYWGQGTQVTVSS”, the “polyreactivity (PSR sort gate)” value is reported as “high polyreactivity”.
For “QVQLVESGGGLVQAGGSLRLSCAASGIIFDYNAMGWYRQAPGKERELVAAISGRSGRTYYADSVKGRFTISRDNAKNTVYLQMNSLKPEDTAVYYCNALRLTRDPYDYWGQGTQVTVSS”, the “polyreactivity (PSR sort gate)” value was “high polyreactivity”.
In the case of “QVQLVESGGGLVQAGGSLRLSSAASGRTFAWYAMGWYRQAPGKERELVAAISSGGSTYYADSVKGRFTISRDNAKNTVYLQMDSLKPEDTAVYYCAAEWHYIYAYDYWGQGTQVTVSS”, the “polyreactivity (PSR sort gate)” value is reported as “low polyreactivity”.
In the case of “QVQLVESGGGLVQAGGSLRLSCAASGRIFVYYTMGWYRQAPGKERELVAAITGSGGSTYYADSVKGRFTISRDNAKNTVYLQMNCLKPEDTAVYYCAARYASTGGGYKYYYWGQGTQVTVSS”, the “polyreactivity (PSR sort gate)” value is reported as “high polyreactivity”.
With “QDQLVESGGGLVQAGGSLRLSCAATGFIIGWNTMGWYRPAPRKEREVVAAISSGGGSTYYADSVKGRFTISRDNAKNNVYLQMNSLKPEDTAVFYCNAVSFKHVYHTDTYGVNEFVYWGEGTQVTVSS” the “polyreactivity (PSR sort gate)” value was “high polyreactivity”.
For “QVQLVESGGGLVQAGGSLRLSGAASGSIFNRNAMGWYRQAPGKESELVARISWTAGSTYYADSEKARFTISRDYAKNTVYLQMNSLKPEDTAVYYCNDVKGYYDLYDKFDYWGQGTQVTVSS”, the “polyreactivity (PSR sort gate)” value was “low polyreactivity”.
In the case of “QVQLVESGGGLVHAGGSLSLSCAASGSTLRAYTMGWYRQSPGKERELVATITRRGGTTYYADSVKGRFTISRDNAKNTVYLQMNSLKPEDTAVYYCAAKWYSTHRYDYWGQGTQVTVSS”, the “polyreactivity (PSR sort gate)” value is reported as “high polyreactivity”.
For “QVQLVESGGGLVQAGGSLRLSCAASGRTFYGYAMGWYRQPPGKERELVATISGSGGTTYYADSVKGRFTISRDNAKNTVYLQMNSLKPEDTAVYYCAADRYLYFYWWPHVGGSPTYGYWGQGTQVTVSS”, the “polyreactivity (PSR sort gate)” value was “high polyreactivity”.
With “QVQLVESGGGLVQAGGSLRLSCAASGRTFTPYDMGWYRQAPGKERELVAAITWRGGSTYYADSVKGRFTISRDNAKNTVYLQMNSLKPEDTAVYYCAKDRWTYAFRVGYGYWGQGTQVTVSS” the “polyreactivity (PSR sort gate)” value was “high polyreactivity”.
In the case of “QVQLVETGGGLVQAGGSLRLSCAASGSTFGYNGMGWYRQAPGKERELVAAISGGARTYADSVKGRFTISRDNAKNTVYLQMNSLIPEDTAVYYCAADSPVSVTADDGYWGLGTQVTVSS”, the “polyreactivity (PSR sort gate)” value is reported as “low polyreactivity”.
With “QVQLVESGGGLVQAGGSLRLSCAASGSIFYNNAMGWYRQAPGKERELVAAISGSGDSTYYADSVKGRFTISRDNAKNSVYLQMNSLKPEDTAVYYCNATPYVLWWSDMDYWGQGTQVTVSS” the “polyreactivity (PSR sort gate)” value was “high polyreactivity”.
With “QVQLVESGGGLVQAGGSLRLSCAASGIIVPNAMGWYRQAPGKERELVAVITSGGSTYYADSVKGRFTISRDNAKNTVSLQMNSLKPEDTAVYYCNKDYAAIDRYDSWGQGTQVTVSS” the “polyreactivity (PSR sort gate)” value was “low polyreactivity”.
